# T1: [2Fe-2S]-IscR (wild type, anaerobically isolated) (Escherichia coli K12, UniProt P0AGK8 1-162)
# T1 sequence: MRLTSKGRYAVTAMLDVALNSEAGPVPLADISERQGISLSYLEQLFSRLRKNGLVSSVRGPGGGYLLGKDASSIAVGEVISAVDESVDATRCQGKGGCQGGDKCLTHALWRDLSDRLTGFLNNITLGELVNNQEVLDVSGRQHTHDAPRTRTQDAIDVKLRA
# B1: iscRB type 1 site 30 bp (dsDNA)
# DNA 1: AAATAGTTGACCATTTTACTCGGGAATGTC
# DNA 2: GACATTCCCGAGTAAAATGGTCAACTATTT
# Assays:
# [1] = target: T1, [2Fe-2S]-IscR (wild type, anaerobically …); experiment: fluorescence anisotropy; [2Fe-2S]1+ cluster, anaerobic, no PMS; apparent Kd; Anisotropy: 40 mM Tris-Cl pH 7.9, 30 mM KCl, 5% glycerol, anaerobic unless stated, temperature not stated for the binding step; EMSA: 40 mM Tris-Cl pH 7.9, 150; details: protein: recombinant; chain copies: 2; label: 5' Texas Red on strand 1; blunt
# [2] = target: T1, [2Fe-2S]-IscR (wild type, anaerobically …); experiment: fluorescence anisotropy; air 15 min, then returned to anaerobic chamber and assayed anaerobically; Anisotropy: 40 mM Tris-Cl pH 7.9, 30 mM KCl, 5% glycerol, anaerobic unless stated, temperature not stated for the binding step; EMSA: 40 mM Tris-Cl pH 7.9, 150; details: protein: recombinant; chain copies: 2; label: 5' Texas Red on strand 1; blunt
binder,measurement,setting,value
B1,Kd,[1],22 nM
same,Kd,[2],26 nM

# — PMC12594620, “The Role of the [2Fe‐2S] Cluster of Escherichia coli IscR in Responding to Redox‐Cycling Agents”
